Assay results taken from US9993566B2, “SEZ6 modulators and methods of use” (AbbVie Stemcentrx LLC, priority 2013, dated 2018).

What was measured:
LU64, a SCLC tumor = test: ADC cytotoxicity in NTX tumor cells in vitro; format: cell-based, human; conditions: compared to control msIgG1
Method: (§1) NTX tumors were dissociated into a single cell suspension and plated on Primaria™ plates (BD Biosciences) in growth factor supplemented serum free media as is known in the art. After culturing the cells for one day at 37° C./5% CO2/5% O2, they were treated with a control (IgG1, IgG2a or IgG2b) or a murine SEZ6 modulator and Fab-saporin as described in Example 14. After seven days, the modulator-mediated saporin cytotoxicity was assessed by quantifying the remaining number of live cells using Cell Titer Glo.
(§2) Mouse lineage-depleted NTX tumor cells were exposed to anti-SEZ6 ADCs or a mouse isotype control (msIgG1) using the same method as described in Example 15, except that Fab-saporin was not added.

[1] = test system: OV26, a NET ovarian tumor; test: ADC cytotoxicity in NTX tumor cells in vitro; format: cell-based, human; conditions: compared to control msIgG1
Method: as §1, §2

SEZ6L2 = biological target: T1, SEZ6L2 (Homo sapiens, UniProt Q6UXD5, INS830AYEELLDNRKLEV); test: ELISA cross reactivity to family member SEZ6L2; format: binding; design: key to binds SEZ6 family member SEZ6L2 (dagger): *: antibodies that bind SEZ6 family members SEZ6L and SEZ6L2 are designated with an asterisk and/or a dagger, respectively; †: antibodies that bind SEZ6 family members SEZ6L and SEZ6L2 are designated with an asterisk and/or a dagger, respectively
T1 construct: IgK signal peptide (N, cleaved yes); made in house; host or cells: HEK-293T or CHO-S
T1 sequence (Q6UXD5 with tags, fused parts or gaps with the stated changes): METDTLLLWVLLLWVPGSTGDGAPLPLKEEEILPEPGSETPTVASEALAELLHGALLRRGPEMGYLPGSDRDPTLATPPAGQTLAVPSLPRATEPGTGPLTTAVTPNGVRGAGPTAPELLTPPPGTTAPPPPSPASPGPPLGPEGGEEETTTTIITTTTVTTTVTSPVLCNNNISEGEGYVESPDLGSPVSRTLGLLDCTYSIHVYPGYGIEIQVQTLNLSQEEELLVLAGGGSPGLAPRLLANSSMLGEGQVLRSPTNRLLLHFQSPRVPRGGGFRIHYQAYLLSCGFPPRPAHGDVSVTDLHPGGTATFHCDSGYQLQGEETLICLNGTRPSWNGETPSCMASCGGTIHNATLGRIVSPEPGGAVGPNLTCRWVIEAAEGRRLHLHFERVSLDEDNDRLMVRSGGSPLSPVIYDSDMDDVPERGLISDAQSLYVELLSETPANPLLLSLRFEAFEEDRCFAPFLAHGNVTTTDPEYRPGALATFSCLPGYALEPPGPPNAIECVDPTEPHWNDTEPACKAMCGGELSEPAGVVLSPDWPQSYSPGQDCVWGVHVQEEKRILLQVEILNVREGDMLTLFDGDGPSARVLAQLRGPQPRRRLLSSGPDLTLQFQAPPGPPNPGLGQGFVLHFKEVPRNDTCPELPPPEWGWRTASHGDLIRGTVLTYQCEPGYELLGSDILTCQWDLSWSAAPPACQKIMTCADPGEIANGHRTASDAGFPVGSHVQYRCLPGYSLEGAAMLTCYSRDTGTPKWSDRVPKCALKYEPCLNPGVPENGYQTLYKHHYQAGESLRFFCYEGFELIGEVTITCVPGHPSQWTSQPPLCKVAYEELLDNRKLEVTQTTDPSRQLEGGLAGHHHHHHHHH
Method: To determine cross reactivity to family member proteins, SEZ6L and SEZ6L2, an ELISA-based assay was used. Plates were coated with SEZ6, SEZ6L, or SEZ6L2 proteins at 0.2 μg/mL in PBS overnight. After washing with PBS containing 0.05% (v/v) Tween 20 (PBST), the wells were blocked with 2% (w/v) BSA in PBS (PBSA), 100 μL/well for 1 hour at room temperature. Antibody was then added at 1 μg/mL in 100 μL PBSA for 1 hour at room temperature. After washing with PBST, 100 μL/well HRP-labeled goat anti-mouse IgG diluted 1:2,000 in PBSA for 1 hour at room temperature. The plates were washed and 100 μL/well of the TMB substrate solution (Thermo Scientific 34028) was added for 15 minutes at room temperature. After developing, an equal volume of 2M H2SO4 was added to stop substrate development and analyzed by spectrophotometer at OD 450. […] As discussed above, such pan-SEZ6 antibodies are compatible with the teachings herein and may be used in conjunction with the disclosed methods.

mouse SEZ6 = biological target: T2, mouse SEZ6 (Mus musculus, UniProt Q7TSK2); test: Flow cytometry cross reactivity, Neuro2a cells; format: binding; conditions: 5 μg/mL antibody
T2 construct: Neuro2a (ATCC Cat # CCL131), and RIN-m5F (ATCC cat # CRL-11605) cell lines which express mouse SEZ6 and rat SEZ6; host or cells: Neuro2a
T2 sequence (Q7TSK2 20-991): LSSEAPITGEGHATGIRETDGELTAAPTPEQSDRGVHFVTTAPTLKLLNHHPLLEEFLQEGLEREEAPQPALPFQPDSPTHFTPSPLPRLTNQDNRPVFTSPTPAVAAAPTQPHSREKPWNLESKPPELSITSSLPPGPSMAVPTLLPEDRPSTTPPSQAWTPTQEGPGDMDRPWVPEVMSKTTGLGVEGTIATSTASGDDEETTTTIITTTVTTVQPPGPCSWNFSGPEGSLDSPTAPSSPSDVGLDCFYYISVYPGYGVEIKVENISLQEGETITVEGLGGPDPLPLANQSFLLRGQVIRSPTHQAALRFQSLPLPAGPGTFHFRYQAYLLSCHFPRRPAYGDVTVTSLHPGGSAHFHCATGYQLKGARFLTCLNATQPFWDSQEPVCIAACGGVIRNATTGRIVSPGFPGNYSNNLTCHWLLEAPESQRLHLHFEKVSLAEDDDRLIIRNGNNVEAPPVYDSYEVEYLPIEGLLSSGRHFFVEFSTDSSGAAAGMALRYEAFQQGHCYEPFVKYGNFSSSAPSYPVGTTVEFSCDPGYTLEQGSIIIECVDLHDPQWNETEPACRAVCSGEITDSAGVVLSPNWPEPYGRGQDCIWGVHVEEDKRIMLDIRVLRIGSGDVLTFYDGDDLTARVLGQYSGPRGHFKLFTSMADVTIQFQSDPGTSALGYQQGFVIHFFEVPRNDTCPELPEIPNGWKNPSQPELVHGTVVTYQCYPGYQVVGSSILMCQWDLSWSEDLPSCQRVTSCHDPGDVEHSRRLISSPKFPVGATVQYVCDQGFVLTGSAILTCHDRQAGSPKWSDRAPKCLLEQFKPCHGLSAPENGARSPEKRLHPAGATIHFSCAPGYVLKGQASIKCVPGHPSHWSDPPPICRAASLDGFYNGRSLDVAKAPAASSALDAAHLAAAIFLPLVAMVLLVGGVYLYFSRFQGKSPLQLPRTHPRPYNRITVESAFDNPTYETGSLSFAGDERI
Method: (§3) In this regard flow cytometry was performed using a FACSCanto II as per the manufacturer's instructions in order to confirm that selected SC17 antibody modulators can immunospecifically associate with human SEZ6 and to determine whether the same modulators cross-react with cynomolgus, rat and/or murine SEZ6 in addition to SEZ6L and SEZ6L2. More particularly modulators were tested for cross reactivity to murine SEZ6 and rat SEZ6 by flow cytometry against Neuro2a (ATCC Cat # CCL131), and RIN-m5F (ATCC cat # CRL-11605) cell lines which express mouse SEZ6 and rat SEZ6, respectively. For examining cross reactivity to cynomolgus SEZ6, yeast displaying the extracellular domain of cynomolgus SEZ6 (Boder et al, 1997) were used for flow cytometry analysis.
(§4) Briefly 1×10^5 cells per well of Neuro2a, RIN-5mF, or yeast displaying cynomolgus SEZ6 cells were incubated for 30 minutes with 50 μL PBS (2% FCS) buffer with 5 μg/mL antibody. Cells were washed twice with the same buffer and then incubated with 50 μL per sample DyLight 649 labeled goat-anti-mouse IgG, Fc fragment specific secondary diluted 1:200 in PBS buffer. After incubating for 15 minutes cells were washed twice with the PBS buffer and re-suspended in the same with DAPI for flow cytometry analysis of Neuro2a and Rin-m5F or buffer without DAPI for flow cytometric analysis of yeast cells with cSEZ6.

LU100, a SCLC tumor = test: Fab-saporin cytotoxicity in NTX tumor cells; format: cell-based, human; conditions: 50 and 500 pM antibody with Fab-saporin, seven days
Method: To corroborate the results of Example 14 and determine whether SEZ6 modulators can mediate toxin internalization and cell killing of human tumor cells (as opposed to engineered cells), mouse lineage-depleted NTX cells were plated and subsequently exposed to anti-SEZ6 antibodies and Fab-saporin.
as §1

rat SEZ6 = test: Flow cytometry cross reactivity, RIN-m5F cells; format: binding; conditions: 5 μg/mL antibody
Sequence of rat SEZ6 (as listed by the source): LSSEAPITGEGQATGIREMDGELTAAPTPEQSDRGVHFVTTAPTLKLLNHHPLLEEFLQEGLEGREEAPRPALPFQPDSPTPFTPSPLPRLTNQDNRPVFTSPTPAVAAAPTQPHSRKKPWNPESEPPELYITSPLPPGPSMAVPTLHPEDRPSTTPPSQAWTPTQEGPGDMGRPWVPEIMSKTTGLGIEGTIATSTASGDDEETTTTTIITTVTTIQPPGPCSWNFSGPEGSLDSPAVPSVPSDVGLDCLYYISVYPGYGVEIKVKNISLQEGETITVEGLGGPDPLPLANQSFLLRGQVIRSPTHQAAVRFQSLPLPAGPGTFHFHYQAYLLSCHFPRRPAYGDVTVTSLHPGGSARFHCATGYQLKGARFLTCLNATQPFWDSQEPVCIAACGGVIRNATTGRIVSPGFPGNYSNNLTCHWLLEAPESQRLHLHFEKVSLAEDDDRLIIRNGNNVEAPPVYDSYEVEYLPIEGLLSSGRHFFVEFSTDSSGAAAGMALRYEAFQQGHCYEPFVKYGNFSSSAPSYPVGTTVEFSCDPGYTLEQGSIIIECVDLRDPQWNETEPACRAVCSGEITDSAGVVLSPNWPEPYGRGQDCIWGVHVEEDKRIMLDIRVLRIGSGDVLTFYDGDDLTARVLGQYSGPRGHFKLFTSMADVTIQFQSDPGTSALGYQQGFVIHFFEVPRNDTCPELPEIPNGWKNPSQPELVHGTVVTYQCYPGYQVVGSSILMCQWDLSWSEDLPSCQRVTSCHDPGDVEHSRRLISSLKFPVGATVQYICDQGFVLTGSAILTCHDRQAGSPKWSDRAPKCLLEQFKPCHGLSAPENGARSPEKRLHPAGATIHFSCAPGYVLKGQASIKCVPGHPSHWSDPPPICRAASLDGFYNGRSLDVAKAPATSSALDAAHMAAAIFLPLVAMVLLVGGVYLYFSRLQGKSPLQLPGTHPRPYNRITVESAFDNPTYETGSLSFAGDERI
Method: as §3, §4

cynomolgus SEZ6 = test: Flow cytometry cross reactivity, yeast displaying extracellular domain of cynomolgus SEZ6; format: binding; conditions: 5 μg/mL antibody
Method: as §3, §4

SEZ6 ECD = biological target: T3, SEZ6 ECD (Homo sapiens, UniProt Q53EL9); test: Fine epitope mapping (phage display peptide library or yeast-displayed SEZ6 ECD mutants); format: binding; conditions: epitope conformational (discontinuous) or linear
T3 construct: SEZ6 extracellular domain (amino acids 1-904); expressed in transfected cells; host or cells: yeast (surface display, Cochran et al. protocol)
T3 sequence (Q53EL9 20-923): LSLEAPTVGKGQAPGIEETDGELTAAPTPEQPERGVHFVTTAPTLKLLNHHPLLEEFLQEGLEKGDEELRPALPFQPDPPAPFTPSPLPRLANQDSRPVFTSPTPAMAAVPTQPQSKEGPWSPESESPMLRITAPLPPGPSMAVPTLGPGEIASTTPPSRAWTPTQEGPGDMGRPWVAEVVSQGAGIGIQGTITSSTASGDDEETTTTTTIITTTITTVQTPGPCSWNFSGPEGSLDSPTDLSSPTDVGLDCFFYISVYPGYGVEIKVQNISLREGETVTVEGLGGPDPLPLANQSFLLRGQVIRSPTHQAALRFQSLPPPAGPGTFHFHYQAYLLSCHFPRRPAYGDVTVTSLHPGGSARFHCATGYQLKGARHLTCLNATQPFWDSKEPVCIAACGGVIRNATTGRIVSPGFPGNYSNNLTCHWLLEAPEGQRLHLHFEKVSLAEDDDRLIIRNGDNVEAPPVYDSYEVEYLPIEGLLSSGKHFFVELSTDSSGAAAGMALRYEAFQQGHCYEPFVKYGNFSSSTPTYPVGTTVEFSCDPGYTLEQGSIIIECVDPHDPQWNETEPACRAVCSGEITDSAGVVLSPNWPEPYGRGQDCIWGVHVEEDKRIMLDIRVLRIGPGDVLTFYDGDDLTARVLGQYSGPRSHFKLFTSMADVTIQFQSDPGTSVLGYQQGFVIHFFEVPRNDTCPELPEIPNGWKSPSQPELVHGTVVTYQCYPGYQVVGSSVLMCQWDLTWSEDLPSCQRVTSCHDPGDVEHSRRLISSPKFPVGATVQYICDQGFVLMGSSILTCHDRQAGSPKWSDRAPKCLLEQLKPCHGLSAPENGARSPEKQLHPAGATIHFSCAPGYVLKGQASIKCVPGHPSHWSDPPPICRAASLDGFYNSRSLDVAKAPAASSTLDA
Method: Epitopes were classified either as conformational (i.e. discontinuous) or linear. Yeast displaying the SEZ6 ECD construct was heat treated for 30 minutes at 80° C. in order to denature the antigen, washed twice in ice-cold PBSA and then subjected to the same staining protocol and flow cytometry analysis as described above. Antibodies that bound to both the denatured and native yeast were classified as binding to a linear epitope, whereas antibodies that bound native yeast but not denatured yeast were classified as conformationally specific.
Fine epitope mapping was further performed on selected antibodies to determine the specific amino acids to which they bound. Antibodies that bound to a linear epitope were mapped using the Ph.D.-12 phage display peptide library kit (New England Biolabs E8110S). The antibody selected for epitope mapping was coated onto a Nunc MaxiSorp tube (Nunc) at 50 μg/mL in 3 mL 0.1 M sodium bicarbonate solution, pH 8 and incubated overnight. The tube was blocked with 3% BSA solution in bicarbonate solution. Then, 10^11 input phage in PBS+0.1% Tween-20 was allowed to bind, followed by ten consecutive washes with 0.1% Tween-20 to wash away non-binding phage. Remaining phage were eluted with 1 mL 0.2 M glycine for 10 minutes at room temperature with gentle agitation, followed by neutralization with 150 μL 1 M Tris-HCl pH 9. Eluted phage were amplified and panned again with 10^11 input phage, using 0.5% Tween-20 during the wash steps to increase selection stringency. DNA from 24 plaques of the eluted phage from the second round was isolated using the Qiaprep M13 Spin kit (Qiagen) and sequenced. Binding of clonal phage was confirmed using an ELISA assay, where the mapped antibody or a control antibody was coated onto an ELISA plate, blocked, and exposed to each clone phage. Phage binding was detected using horseradish peroxidase conjugated anti-M13 antibody (GE Healthcare), and the 1-Step Turbo TMB ELISA solution (Pierce). Phage peptide sequences from specifically binding phage were aligned using Vector NTI (Life Technologies) against the antigen ECD peptide sequence to determine the epitope of binding.
Selected antibodies that bound to a discontinuous epitope were mapped using the technique described by Chao et al. (2007). Libraries of SEZ6 ECD mutants were generated with error prone PCR using nucleotide analogues 8-oxo-2′deoxyguanosine-5′-triphosphate and 2′-deoxy-p-nucleoside-5′triphosphate (both from TriLink Bio) for a target mutagenesis rate of one amino acid mutation per clone. These were transformed into a yeast display format. Using the technique described above for domain-level mapping, the library was stained for c-myc and antibody binding at 50 nM. […] These clones were re-grown, and subjected to another round of FACS sorting for loss of binding to the target antibody. Using the Zymoprep Yeast Plasmid Miniprep kit (Zymo Research), individual ECD clones were isolated and sequenced. Where necessary, mutations were reformatted as single-mutant ECD clones using the Quikchange site directed mutagenesis kit (Agilent).
Individual ECD clones were next screened to determine whether loss of binding was due to a mutation in the epitope, or a mutation that caused misfolding. Mutations that involved cysteine, proline, and stop codons were automatically discarded due to the high likelihood of a misfolding mutation. Remaining ECD clones were then screened for binding to a non-competing, conformationally specific antibody. ECD clones that lost binding to non-competing, conformationally specific antibodies were concluded to contain misfolding mutations, whereas ECD clones that retained equivalent binding as wild type SEZ6 ECD were concluded to be properly folded. Mutations in the ECD clones in the latter group were concluded to be in the epitope. […]

Molecule | percent viable cells, LU64 (LU64, a SCLC tumor) | percent viable cells, OV26 [1] | cross reactivity to murine SEZ6 (mouse SEZ6) | number of tumor cells, LU100 (LU100, a SCLC tumor) | cross reactivity to rat SEZ6 (rat SEZ6) | cross reactivity to cynomolgus SEZ6 (cynomolgus SEZ6) | Discontinuous (SEZ6 ECD) | other results
SC17.28-ADC2: SC17.28 antibody conjugated to PBD dimer cytotoxic agent (and linker) ADC2 (conjugate) VL: DILLTQSPAILSVSPGEGVSFSCRASQSIGTSIHWYQQRTNGSPRLLIKYASESISGIPSRFSGSGSGTDFTLRINSLESEDIADYYCQQSNSWPLTFGAGTKLELK VH: QVHLPQSRPELVKPGASVKISCKASGYGFTRSYIHWVKQRPGQGLEWIGYISSGSGGTTYNQKFKGKASLTADNPSSTAYMHLSSLTSEDSAIYFCARGGVRYFDVWGAGTTVTVSS | increased reduction in percent viable cells | increased reduction in percent viable cells | – | – | – | – | – | –
SC17.19: murine anti-SEZ6 antibody (antibody, V domains shown, Murine SC17.19 VH; Murine SC17.19 VL, murine anti-SEZ6 antibody) VH: DVQLQESGPGLVKPSQSLSVTCTVTGYSITSSYTWNWIRQFPGNKLEWMGYIHYSGSTNYNPSLRSRISITRDTSKNQFFLQLNSVTTEDTATYYCARSRYYYDAYGFAYWGQGTLVTVSA VL: DIVLTQSPASLAVSLGQRAAISCKPSQSVDYDGDSYMNWYQQKPGQPPKLLIYAASNLESGIPARFSGSGSGTDFTLNIHPVEEEDAATYYCHQINDDPWTFGGGTKLK | – | – | cross reactive | reduction of tumor cells | cross reactive | – | – | cross reactivity with SEZ6L2 (SEZ6L2; ELISA, antibody 1 μg/mL): cross-reactive; binds SEZ6 family member SEZ6L2 (dagger) (SEZ6L2; mark in Table 5): SC17.SC17, SC17.19^†, SC17.93, SC17.102, SC17.121,
SC17.24: murine anti-SEZ6 antibody; duplicate sequence of SC17.2 (antibody, V domains shown, Murine SC17.2 VH; Murine SC17.2 VL) VH: QVQLQQSDAELVKPGASVKISCKVSGYTFTDHTIHWMKQRPEQGLEWIGYIYPRDGSTKYNEEFKGKATLTADKSSSTAYMQLNSLTSEDSAVYFCARSYSNYFDYWGQGTTLTVSS VL: DIVMSQSPSSLAVSVGEKVTMSCKSSQSLLYSSNQKSYLAWYQQKPGQSPKLLIYWASTRESGVPDRFTGSGSGTDFTLTISSVQAEDLAVYYCKQSYNLRTFGGGTKLEIK | – | – | cross reactive | – | – | cross reactive | No | –
SC17.24-ADC2: SC17.24 antibody conjugated to PBD dimer cytotoxic agent (and linker) ADC2 (conjugate) VL: DIVMSQSPSSLAVSVGEKVTMSCKSSQSLLYSSNQKSYLAWYQQKPGQSPKLLIYWASTRESGVPDRFTGSGSGTDFTLTISSVQAEDLAVYYCKQSYNLRTFGGGTKLEIK VH: QVQLQQSDAELVKPGASVKISCKVSGYTFTDHTIHWMKQRPEQGLEWIGYIYPRDGSTKYNEEFKGKATLTADKSSSTAYMQLNSLTSEDSAVYFCARSYSNYFDYWGQGTTLTVSS | increased reduction in percent viable cells | increased reduction in percent viable cells | – | – | – | – | – | –
SC17.34: murine anti-SEZ6 antibody (antibody, V domains shown, Murine SC17.34 VH; Murine SC17.34 VL, murine anti-SEZ6 antibody) VH: EVQLQQSGPELVKPGSSVKISCKASGYTFTDYNMDWVKQSHGKRLEWIGYIYPDNGGAGYNQKFKGKATLTVDKSSSTAYMELRSLTSEDSAVYYCSRSITTAWFAYWGQGTLVTVSA VL: DIKMTQSPSSMYASLGERVTITCKASQDINSYLSWFQQKPGKSPKTLIYRANRLVDGVPSRFSGSGSGQDYSLTISSLEYEDMGIYYCLQYDEFPPTFGGGTKLEIK | – | – | – | reduction of tumor cells | cross reactive | cross reactive | Yes | –
SC17.34-ADC2: SC17.34 antibody conjugated to PBD dimer cytotoxic agent (and linker) ADC2 (conjugate) VL: DIKMTQSPSSMYASLGERVTITCKASQDINSYLSWFQQKPGKSPKTLIYRANRLVDGVPSRFSGSGSGQDYSLTISSLEYEDMGIYYCLQYDEFPPTFGGGTKLEIK VH: EVQLQQSGPELVKPGSSVKISCKASGYTFTDYNMDWVKQSHGKRLEWIGYIYPDNGGAGYNQKFKGKATLTVDKSSSTAYMELRSLTSEDSAVYYCSRSITTAWFAYWGQGTLVTVSA | increased reduction in percent viable cells | increased reduction in percent viable cells | – | – | – | – | – | –
